As a reminder, the Kd is the equilibrium constant for the complex coming apart.

The record followed here is paper PMC10754036.

In the assay the target is PSD95, His tagged recombinant (UniProt P78352). Briefly: BLI.
Sequence of PSD95, His tagged recombinant (P78352 whole entry): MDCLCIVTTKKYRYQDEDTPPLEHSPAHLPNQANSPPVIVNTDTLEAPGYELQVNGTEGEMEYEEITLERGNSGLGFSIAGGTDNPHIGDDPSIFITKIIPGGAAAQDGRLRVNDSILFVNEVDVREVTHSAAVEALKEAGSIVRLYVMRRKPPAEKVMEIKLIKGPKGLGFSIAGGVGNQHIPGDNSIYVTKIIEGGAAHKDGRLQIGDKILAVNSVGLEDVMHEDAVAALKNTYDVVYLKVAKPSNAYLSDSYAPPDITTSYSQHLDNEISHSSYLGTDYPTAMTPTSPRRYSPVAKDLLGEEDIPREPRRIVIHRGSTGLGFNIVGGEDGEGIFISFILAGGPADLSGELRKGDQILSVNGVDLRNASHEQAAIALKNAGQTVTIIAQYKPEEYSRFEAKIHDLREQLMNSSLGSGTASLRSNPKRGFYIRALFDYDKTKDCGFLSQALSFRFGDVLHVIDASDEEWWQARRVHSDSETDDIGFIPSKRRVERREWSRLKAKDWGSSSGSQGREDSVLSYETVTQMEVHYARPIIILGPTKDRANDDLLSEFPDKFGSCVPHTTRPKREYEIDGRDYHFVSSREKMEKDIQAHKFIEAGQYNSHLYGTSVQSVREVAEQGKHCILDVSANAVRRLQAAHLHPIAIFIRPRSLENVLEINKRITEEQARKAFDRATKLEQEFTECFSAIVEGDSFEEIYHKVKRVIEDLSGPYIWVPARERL

As to “NS1-SUMO (1918 NS1 covalently fused with SUMO at its C-terminus), His tagged recombinant”, the Kd is 630 nM.
